Source: PMC5861437

Tests used:
[1] = biological target: H-subunit of the restriction endonuclease CglI (H.CglI), wild type (Corynebacterium glutamicum); test: SEC + other: SAXS
[2] = biological target: H.CglI H282A (H/H motif mutant) (Corynebacterium glutamicum); test: SEC
[3] = biological target: H.CglI H282A + H290A (H/H motif double mutant) (Corynebacterium glutamicum); test: SEC
[4] = biological target: H.CglI H290A (H/H motif mutant) (Corynebacterium glutamicum); test: SEC
[5] = biological target: H.CglI L1 (V169A), Loop 163–172 mutant (Corynebacterium glutamicum); test: SEC
[6] = biological target: H.CglI Q405A (Motif VI mutant) (Corynebacterium glutamicum); test: SEC
[7] = biological target: H.CglI R379A (Motif V mutant) (Corynebacterium glutamicum); test: SEC
[8] = biological target: H.CglI R408A (Motif VI mutant) (Corynebacterium glutamicum); test: SEC
[9] = biological target: H.CglI ΔL (a deletion of the residues 165–172), Loop 163–172 mutant (Corynebacterium glutamicum); test: SEC

“H-subunit of the restriction endonuclease CglI (H.CglI), wild type (natural protein)” was tested, and the stoichiometry N [1] was 2.
Work on “H.CglI H282A (H/H motif mutant) (natural protein)” yielded a stoichiometry N [2] of 2.
Substance “H.CglI H282A + H290A (H/H motif double mutant) (natural protein)” has a stoichiometry N [3] of 2.
Substance “H.CglI H290A (H/H motif mutant) (natural protein)” has a stoichiometry N [4] of 2.
“H.CglI L1 (V169A), Loop 163–172 mutant (natural protein)” showed a stoichiometry N [5] of 2.
“H.CglI Q405A (Motif VI mutant) (natural protein)” was tested, and the stoichiometry N [6] was 2.
With “H.CglI R379A (Motif V mutant) (natural protein)” the stoichiometry N [7] was 2.
For “H.CglI R408A (Motif VI mutant) (natural protein)”, the stoichiometry N [8] was 2.
For “H.CglI ΔL (a deletion of the residues 165–172), Loop 163–172 mutant (natural protein)”, the stoichiometry N [9] was 2.
